Target: T1, human VEGF (R&D systems, Inc.; catalog #293-VE) (human, UniProt P15692-4 27-191)
T1 construct: Bought protein; It was biotinylated for bead panning and coated directly on the plate for the ELISAs; also called human vascular endothelial growth factor; human-derived vascular endothelial growth factor
Assay: phage ELISA on plate-immobilised human VEGF, anti-M13-HRP, OD450
Method: E. coli XL1-Blue was infected with each of the phage clones obtained from the biopanning process, and the cells were cultured at 37° C. for 14 hours to obtain a phage solution. The VEGF was added to a 96-well microtiter plate (Nunc), and maintained at 4° C. for 18 hours to immobilize the VEGF on a surface of the plate. The plate with the immobilized VEGF was blocked with skim milk at room temperature for 1 hour, and 100 μl of the phage solution was added to the plate. Then, the phage and the VEGF were incubated together at room temperature for two hours, and washed using a PBS solution containing 0.1% Tween-20. Subsequently, an anti-M13 antibody (GE Healthcare) specifically reactive to the phage and conjugated with horseradish peroxidase (HRP) was added to the resultant product and incubated with each other at room temperature for 1 hour. Then, the plate was washed twice with a PBS solution containing 0.1% Tween-20. Lastly, 100 μl of trimethylbenzidine (TMB) (SIGMA), an HRP substrate, was added to each well of the plate to induce a color reaction. The reaction was stopped by adding 50 μl of 5N H₂SO₄ solution. The OD₄₅₀ value was read on a plate reader (Molecular Devices). […] To determine the base sequence of polynucleotides encoding the polypeptides specifically binding to the VEGF obtained from single clones of the phages, a colony polymerase chain reaction (PCR) was performed using two different primer sets (primer set SEQ ID NOS: 47 and 48; and primer set SEQ ID NOS: 49 and 50). Each primer set was used according to the origin of the Dyax polypeptide library. […] The PCR was performed using a GeneAmp PCR system 9700 (Applied Biosystem), with the following PCR conditions: 30 cycles of 94° C. for 5 minutes, 94° C. for 1 minute, 60° C. for 1 minute, and 72° C. for 1.5 minutes; 72° C. for 10 minutes; and cooling to 4° C. Subsequently, polynucleotide fragments obtained by the PCR reaction were washed and then sequenced (Solgent).

T1 sequence (P15692 other isoform, or with tags, fused parts or gaps limits assumed): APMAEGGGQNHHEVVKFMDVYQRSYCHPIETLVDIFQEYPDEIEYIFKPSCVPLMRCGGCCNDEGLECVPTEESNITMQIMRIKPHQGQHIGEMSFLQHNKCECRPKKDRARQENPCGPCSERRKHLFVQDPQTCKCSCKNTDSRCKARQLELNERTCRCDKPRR

EDYRFYSVW (peptide, not shown: large carriers, Tested as a phage clone in phage ELISA) [polypeptide clone number 13, displayed on phage]: binds.

ERTEMFPSAS (peptide, not shown: large carriers, Tested as a phage clone in phage ELISA) [polypeptide clone number 73, displayed on phage]: binds.

PHQEMWQFES (peptide, not shown: large carriers, Tested as a phage clone in phage ELISA) [polypeptide clone number 78, displayed on phage]: binds.

YGYPWSGT (peptide, not shown: large carriers, Tested as a phage clone in phage ELISA) [polypeptide clone number 34, displayed on phage]: binds.

MHRPWPWDMF (peptide, not shown: large carriers, Tested as a phage clone in phage ELISA) [polypeptide clone number 56, displayed on phage]: binds.

PIGQRWNRLE (peptide, not shown: large carriers, Tested as a phage clone in phage ELISA) [polypeptide clone number 68, displayed on phage]: binds.

DRFSMWKNLE (peptide, not shown: large carriers, Tested as a phage clone in phage ELISA) [polypeptide clone number 66, displayed on phage]: binds.

YRGVWGGYF (peptide, not shown: large carriers, Tested as a phage clone in phage ELISA) [polypeptide clone number 42, displayed on phage]: binds.

SRFEMWNDIS (peptide, not shown: large carriers, Tested as a phage clone in phage ELISA) [polypeptide clone number 70, displayed on phage]: binds.

HDYAFYSAW (peptide, not shown: large carriers, Tested as a phage clone in phage ELISA) [polypeptide clone number 44, displayed on phage]: binds.

DRYSQYQSPM (peptide, not shown: large carriers, Tested as a phage clone in phage ELISA) [polypeptide clone number 16, displayed on phage]: binds.

FDKYYRDWFI (peptide, not shown: large carriers, Tested as a phage clone in phage ELISA) [polypeptide clone number 83, displayed on phage]: binds.

DFLKMYRDEK (peptide, not shown: large carriers, Tested as a phage clone in phage ELISA) [polypeptide clone number 52, displayed on phage]: binds.

RLFEMYPSLE (peptide, not shown: large carriers, Tested as a phage clone in phage ELISA) [polypeptide clone number 69, displayed on phage]: binds.

PRFEMWHDDK (peptide, not shown: large carriers, Tested as a phage clone in phage ELISA) [polypeptide clone number 55, displayed on phage]: binds.

QRDEMYPHLN (peptide, not shown: large carriers, Tested as a phage clone in phage ELISA) [polypeptide clone number 76, displayed on phage]: binds.

QMDRMFPHVG (peptide, not shown: large carriers, Tested as a phage clone in phage ELISA) [polypeptide clone number 65, displayed on phage]: binds.

PRLSMWQNME (peptide, not shown: large carriers, Tested as a phage clone in phage ELISA) [polypeptide clone number 63, displayed on phage]: binds.

QRDQQYKHMY (peptide, not shown: large carriers, Tested as a phage clone in phage ELISA) [polypeptide clone number 50, displayed on phage]: binds.

MKSAMYHDIR (peptide, not shown: large carriers, Tested as a phage clone in phage ELISA) [polypeptide clone number 82, displayed on phage]: binds.

RMGPFGTTH (peptide, not shown: large carriers, Tested as a phage clone in phage ELISA) [polypeptide clone number 40, displayed on phage]: binds.
